Results on 65 molecules are retold here after patent EP1652858A1.

A word on the Ki: it is a measure of affinity in units of concentration, obtained from inhibition or displacement. The low end stands for a stronger hold on the target, the high end for a looser hold on the target. The term IC50 denotes the concentration that inhibits the measured activity by half. Low values mean inhibition by little substance, high ones a need for much substance.

B1: … (peptide)
peptide: PAAYAAQGY
modifications: not checked
B2: … (peptide)
peptide: VIDTLTCGF
modifications: not checked
B3: … (peptide)
peptide: FTDNSSPPA
modifications: not checked
B4: … (peptide)
peptide: LVDILAGYGA
modifications: not checked
B5: … (peptide)
peptide: FTEAMTRYS
modifications: not checked
B6: … (peptide)
peptide: LTCGFADLM
modifications: not checked
B7: … (peptide)
peptide: LADGGCSGGAY
modifications: not checked
B8: … (peptide)
peptide: MGSSYGFQY
modifications: not checked
B9: … (peptide)
peptide: CYDAGCAWY
modifications: not checked
B10: … (peptide)
peptide: KSTKVPAAY
modifications: not checked
B11: … (peptide)
peptide: YLFNWAVRT
modifications: not checked
B12: … (peptide)
peptide: CLVDYPYRL
modifications: not checked
B13: … (peptide)
peptide: AQPGYPWPL
modifications: not checked
B14: … (peptide)
peptide: YQATVCARA
modifications: not checked
B15: … (peptide)
peptide: FIPVESMET
modifications: not checked
B16: … (peptide)
peptide: SMVGNWAKV
modifications: not checked
B17: … (peptide)
peptide: MALYDVVST
modifications: not checked
B18: … (peptide)
peptide: LVLNPSVAA
modifications: not checked
B19: … (peptide)
peptide: GMFDSSVLC
modifications: not checked
B20: … (peptide)
peptide: RLYIGGPLT
modifications: not checked
B21: … (peptide)
peptide: KVLVLNPSV
modifications: not checked
B22: … (peptide)
peptide: NIIMYAPTL
modifications: not checked
B23: … (peptide)
peptide: FLLALLSCLT
modifications: not checked
B24: … (peptide)
peptide: PLLLLLLAL
modifications: not checked
B25: … (peptide)
peptide: QIVGGVYLL
modifications: not checked
B26: … (peptide)
peptide: YIPLVGAPL
modifications: not checked
B27: … (peptide)
peptide: IMAKNEVFCV
modifications: not checked
B28: … (peptide)
peptide: SVFTGLTHI
modifications: not checked
B29: … (peptide)
peptide: IMACMSADL
modifications: not checked
B30: … (peptide)
peptide: ALAHGVRVL
modifications: not checked
B31: … (peptide)
peptide: DLCGSVFLV
modifications: not checked
B32: … (peptide)
peptide: NLPGCSFSI
modifications: not checked
B33: … (peptide)
peptide: WLGNIIMYA
modifications: not checked
B34: … (peptide)
peptide: TWAQPGYPW
modifications: not checked
B35: … (peptide)
peptide: GLGWAGWLL
modifications: not checked
B36: … (peptide)
peptide: GLTHIDAHF
modifications: not checked
B37: TYSTYGKF (peptide)
peptide: TYSTYGKF
modifications: not checked
B38: … (peptide)
peptide: PAVPQTFQV
modifications: not checked
B39: … (peptide)
peptide: PFYGKAIPI
modifications: not checked
B40: … (peptide)
peptide: LYGNEGLGW
modifications: not checked
B41: … (peptide)
peptide: TLWARMILM
modifications: not checked
B42: … (peptide)
peptide: FWAKHMWNF
modifications: not checked
B43: … (peptide)
peptide: YYRGLDVSVI
modifications: not checked
B44: … (peptide)
peptide: AVMGSSYGF
modifications: not checked
B45: … (peptide)
peptide: SWDQMWKCL
modifications: not checked
B46: VMGSSYGF (peptide)
peptide: VMGSSYGF
modifications: not checked
B47: … (peptide)
peptide: ATLGFGAYM
modifications: not checked
B48: … (peptide)
peptide: APTGSGKST
modifications: not checked
B49: … (peptide)
peptide: APLGGAARA
modifications: not checked
B50: … (peptide)
peptide: AARALAHGV
modifications: not checked
B51: … (peptide)
peptide: TPGERPSGM
modifications: not checked
B52: … (peptide)
peptide: AAKLSALGL
modifications: not checked
B53: … (peptide)
peptide: QPRGRRQPI
modifications: not checked
B54: LPRRGPRL (peptide)
peptide: LPRRGPRL
modifications: not checked
B55: … (peptide)
peptide: APTLWARMIL
modifications: not checked
B56: … (peptide)
peptide: KPTLHGPTPL
modifications: not checked
B57: … (peptide)
peptide: LPRRGPRLGV
modifications: not checked
B58: … (peptide)
peptide: APLGGAARAL
modifications: not checked
B59: … (peptide)
peptide: YLKGSSGGPL
modifications: not checked
B60: … (peptide)
peptide: RTKLKLTPI
modifications: not checked
B61: … (peptide)
peptide: TIMAKNEVF
modifications: not checked
B62: … (peptide)
peptide: TYSTYGKFL
modifications: not checked
B63: … (peptide)
peptide: ARLIVFPDL
modifications: not checked
B64: … (peptide)
peptide: VRVCEKMAL
modifications: not checked
B65: … (peptide)
peptide: LPRRGPRLG
modifications: not checked

The target in one assay is HLA-A0101 (human). Kind of assay: competition vs labelled reference peptide.
Details: not given
B1 displayed a Ki of 1610 nM.
With B2, the inhibition constant Ki was 1130 nM. The Ki values of the last two molecules are within 1.5-fold of each other.
In turn, B3 returned an inhibition constant (Ki) of 10 nM.
Take B4: the Ki worked out at 419 nM.
Same read-out and setting: the figure for B5 is 6610 nM.
In the case of B6, the Ki amounted to 3550 nM.
As to B7, the Ki came to 60 nM.

Still in this assay, the particulars now being: remark: other sources report otherwise.
In turn, B8 gave a Ki of 1020 nM.
As for B9, the Ki was over 20000 nM.
The same measure, in the same setting: the figure for B10 is 950 nM.

The target in another assay is HLA-A0201 (human). Kind of assay: competition vs labelled reference peptide.
Details: not given
B11 showed a Ki of 29 nM.
Regarding B12, the Ki turned out to be 437 nM.
Take B13: the Ki was 382 nM. The Ki values of the last two molecules are within 1.5-fold of each other.
In the case of B14, the Ki turned out to be 20 nM.
In turn, B15 had a Ki of 934 nM. Against the preceding molecule, the Ki is about 47-fold higher.
In turn, B16 yielded an inhibitory constant (Ki) of 158 nM. Against the preceding molecule, the Ki is about 5.9-fold lower.
Take B17: the Ki was 1140 nM.
B18 returned an inhibition constant (Ki) of 2880 nM.
In turn, B19 gave a Ki of 71 nM.
Consider B20, for which the inhibitory constant (Ki) worked out at 845 nM. This Ki is about 12-fold higher than that of the molecule before.
Still for that read-out and setting: under B21 stands 50 nM; under B22, 70 nM; under B23, 132 nM.
In the case of B24, the Ki was 6550 nM.
Molecule B25 had a Ki of 228 nM.

The assay is the same for the next values; noted with them: remark: other sources report otherwise.
B26 displayed a Ki of 337 nM.
As to B27, the Ki is 199 nM. Compared with the last molecule, the Ki is about 1.7-fold lower.
As for B28, the Ki is 101 nM.
In turn, B29 came in with a Ki of 66 nM. Against the preceding molecule, the Ki is about 1.5-fold lower.
In the case of B30, the Ki came out at 674 nM.
On the same count and under the same terms, under B31 stands 789 nM; under B32, 83 nM; under B33, 33 nM.

In a further assay the target is HLA-A2402 (human). Kind of assay: competition vs labelled reference peptide.
Details: not given
B34 showed a Ki of 8 nM. That is a single-digit nanomolar value.
Molecule B35 yielded a Ki of 68 nM.
On the same count and under the same terms, under B36 stands 10 nM.
B37 came in with a Ki of 192 nM. This Ki is about 19-fold higher than that of the molecule before.
The molecule B38 registered an inhibition constant Ki of 991 nM.
For B39, the Ki is 4 nM.
Consider B40, for which the Ki was determined as 5 nM.
In the case of B41, the inhibitory constant (Ki) is 2640 nM.
For B42, the Ki is 2 nM.
In the case of B43, the Ki came out at 437 nM.

Staying with this assay, now noted: remark: other sources report otherwise.
With B44, the Ki amounted to 10 nM.
Still for that read-out and setting: the figure for B45 is 670 nM; for B46 it is 33 nM; for B32 it is 8 nM.

A further assay concerns the target HLA-B0702 (human). Kind of assay: competition vs labelled reference peptide.
Details: not given
The molecule B47 had a Ki of 13000 nM.
The molecule B48 yielded a Ki of 370 nM.
Consider B49, for which the Ki came to 115 nM. This Ki is about 3.2-fold lower than that of the molecule before.
B50 came in with a Ki of 209 nM.
B51 gave a Ki of 199 nM.
Consider B52, for which the inhibition constant Ki turned out to be 277 nM.

The same assay, now with this note: remark: other sources report otherwise.
Molecule B53 registered a Ki of 1 nM.
For B54, the Ki worked out at 1 nM.
As for B30, the Ki turned out to be 7950 nM.
For the molecule B55, the Ki stood at 1 nM. Compared with the last molecule, the Ki is about 8000-fold lower.
The molecule B56 registered an inhibition constant Ki of 6 nM.
B57: the inhibitory constant (Ki) came out at 3 nM.
Regarding B58, the Ki came out at 1 nM.

In a further assay the target is HLA-B0801 (human). Kind of assay: competition binding assay with labelled reference peptide.
Details: not given
The molecule B59 gave a Ki of 10 nM.
The same measure, in the same setting: the figure for B60 is 2 nM; for B61 it is 6 nM.

The assay is the same for the next values; noted with them: remark: other sources report otherwise.
For the molecule B53, the Ki turned out to be 3 nM.
As for B54, the Ki worked out at 6 nM.

Another assay has as its target HLA-Cw0702 (human). Described as above.
Details: not given
B62 had a Ki of 1020 nM. That is a single-digit micromolar value.
B63 displayed a Ki of 514 nM.
On the same count and under the same terms, under B64 stands 377 nM.

The target in the next assay is HLA-B*0702 (human). Kind of assay: competition binding assay, purified HLA, labelled probe peptide.
Details: not given
Molecule B48 showed an IC50 of 370 nM.
Take B49: the IC50 was found to be 115 nM. Against the preceding molecule, the IC50 is about 3.2-fold lower.
Same read-out and setting: the figure for B51 is 199 nM; for B65 it is 124 nM; for B52 it is 277 nM.

Staying with this assay, now noted: remark: other sources report otherwise.
With B56, the IC50 is 5.8 nM.
For B58, the IC50 came out at 0.8 nM.

For the next assay, the target named is HLA-B*0702 (human). Kind of assay: competition binding assay against a labelled reference peptide; Ki from IC50. To be noted: remark: other sources report otherwise.
B53 registered a Ki of 1 nM. That is a single-digit nanomolar value.
The same measure, in the same setting: the figure for B55 is 1 nM.
B56: the Ki amounted to 6 nM. This Ki lies about 6-fold higher than the previous one.
The molecule B57 came in with a Ki of 3 nM. This Ki is about 2-fold lower than that of the molecule before.
Molecule B58 gave a Ki of 1 nM.
